Measurements as given in paper PMC3250504, “Identification and Characterization of a Mef2 Transcriptional Activator in Schistosome Parasites”.
Numbering of substitutions follows the chain as printed.

B1: AT14 (Ndt80 MSE negative control) (dsDNA)
DNA 1: GCTGAAGGATGTCACAAAATGCGGATCGGC
DNA 2: GCCGATCCGCATTTTGTGACATCCTTCAGC
B2: AT11 (Drosophila Actin57B Mef2 site) (dsDNA)
DNA 1: GCTGAAGGATCTATTTTTAGGCGGATCGGC
DNA 2: GCCGATCCGCCTAAAAATAGATCCTTCAGC
B3: AT12 (common Mef2 consensus) (dsDNA)
DNA 1: GCTGAAGGATCTAAAAATAGGCGGATCGGC
DNA 2: GCCGATCCGCCTATTTTTAGATCCTTCAGC
B4: AT13 (M. polymorpha Mef2 site) (dsDNA)
DNA 1: B3 DNA 1 with A14T, A16T
DNA 2: B2 DNA 2 with A14T, A16T

Tests used:
[1] = target: T1, MBP-SmMef2 (Schistosoma mansoni, UniProt G8JE45 1-730); assay: competition; 200x cold vs labeled AT12 or AT13; LightShift kit 1x binding buffer, 2.5% glycerol, 5 mM MgCl2, 50 ng/uL poly(dI-dC), 0.05% NP-40, 180 fmol hot dsDNA, 1.4 ug protein, 20 min room temperature; 5%; conditions: protein: recombinant; tags: N-terminal MBP (pMAL-c5x); chain copies: 2; blunt
T1 sequence: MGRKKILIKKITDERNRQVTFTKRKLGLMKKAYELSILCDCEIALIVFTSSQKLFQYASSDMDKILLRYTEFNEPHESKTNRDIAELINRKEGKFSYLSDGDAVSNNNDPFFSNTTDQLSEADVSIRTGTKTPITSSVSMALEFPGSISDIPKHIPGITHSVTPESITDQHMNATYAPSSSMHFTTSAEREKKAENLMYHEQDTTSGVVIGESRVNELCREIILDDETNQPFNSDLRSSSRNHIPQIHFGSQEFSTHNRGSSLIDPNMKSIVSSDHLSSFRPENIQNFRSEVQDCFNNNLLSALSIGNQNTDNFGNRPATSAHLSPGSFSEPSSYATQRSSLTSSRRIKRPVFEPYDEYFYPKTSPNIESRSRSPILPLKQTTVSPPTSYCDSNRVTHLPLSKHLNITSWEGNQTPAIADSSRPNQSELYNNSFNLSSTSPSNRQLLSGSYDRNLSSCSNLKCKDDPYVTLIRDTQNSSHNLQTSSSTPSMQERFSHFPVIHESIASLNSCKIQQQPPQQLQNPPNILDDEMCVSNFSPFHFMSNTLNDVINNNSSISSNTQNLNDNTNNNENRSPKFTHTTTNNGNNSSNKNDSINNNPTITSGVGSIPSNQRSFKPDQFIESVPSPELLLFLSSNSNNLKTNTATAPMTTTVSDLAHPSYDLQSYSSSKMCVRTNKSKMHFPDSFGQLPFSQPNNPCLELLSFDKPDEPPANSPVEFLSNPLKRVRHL

[2] = target: T1, MBP-SmMef2; assay: EMSA; 5 mM MgCl2, poly(dI-dC); LightShift kit 1x binding buffer, 2.5% glycerol, 5 mM MgCl2, 50 ng/uL poly(dI-dC), 0.05% NP-40, 180 fmol hot dsDNA, 1.4 ug protein, 20 min room temperature; 5%; conditions: protein: recombinant; tags: N-terminal MBP (pMAL-c5x); chain copies: 2; label: 5' biotin on forward strand (hot); blunt

| Binder | binding result [1] | binding result [2] |
| --- | --- | --- |
| B1 | no binding |  |
| B2 |  | binds |
| B3 |  | binds |
| B4 |  | binds |
